Data on four molecules can be found in patent publication US20120117670A1 (U3 PHARMA, published 2012).

The target in assay [1] is T1, Human AXL-Fc (R&D Systems, #154-AL) (human, UniProt P30530 26-451).
T1 construct: Bought reagent; also called human AXL-Fc fusion protein; human AXL-Fc protein; not shown: Fc part of the bought fusion protein
T1 sequence: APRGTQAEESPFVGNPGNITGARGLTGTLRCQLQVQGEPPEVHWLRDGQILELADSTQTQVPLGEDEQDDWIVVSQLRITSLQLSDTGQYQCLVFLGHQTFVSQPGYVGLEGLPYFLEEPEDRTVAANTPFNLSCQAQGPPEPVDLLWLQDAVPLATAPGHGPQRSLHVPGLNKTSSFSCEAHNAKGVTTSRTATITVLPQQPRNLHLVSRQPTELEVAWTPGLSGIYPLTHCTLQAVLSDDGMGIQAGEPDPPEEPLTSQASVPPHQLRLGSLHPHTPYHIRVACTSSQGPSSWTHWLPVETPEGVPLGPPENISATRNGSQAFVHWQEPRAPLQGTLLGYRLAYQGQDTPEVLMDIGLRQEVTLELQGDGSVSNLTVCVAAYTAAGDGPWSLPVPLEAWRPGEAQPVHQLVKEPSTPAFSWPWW
The experiment in a line: ELISA on plate-adsorbed human AXL-Fc (1 ug/ml), 5-fold antibody dilution series, AP-conjugated goat anti-human IgG, fluorescent substrate (Example 13). (In an ELISA, binding on a coated surface is turned into a signal by an enzyme label.)

Assay [2] has as its target T2, human receptor tyrosine kinase AXL (human, UniProt P30530 26-894).
T2 construct: also called hAXL; human AXL on NIH3T3-AXL cI.7, RatI-AXL cI.2 and human cancer cell lines
T2 sequence: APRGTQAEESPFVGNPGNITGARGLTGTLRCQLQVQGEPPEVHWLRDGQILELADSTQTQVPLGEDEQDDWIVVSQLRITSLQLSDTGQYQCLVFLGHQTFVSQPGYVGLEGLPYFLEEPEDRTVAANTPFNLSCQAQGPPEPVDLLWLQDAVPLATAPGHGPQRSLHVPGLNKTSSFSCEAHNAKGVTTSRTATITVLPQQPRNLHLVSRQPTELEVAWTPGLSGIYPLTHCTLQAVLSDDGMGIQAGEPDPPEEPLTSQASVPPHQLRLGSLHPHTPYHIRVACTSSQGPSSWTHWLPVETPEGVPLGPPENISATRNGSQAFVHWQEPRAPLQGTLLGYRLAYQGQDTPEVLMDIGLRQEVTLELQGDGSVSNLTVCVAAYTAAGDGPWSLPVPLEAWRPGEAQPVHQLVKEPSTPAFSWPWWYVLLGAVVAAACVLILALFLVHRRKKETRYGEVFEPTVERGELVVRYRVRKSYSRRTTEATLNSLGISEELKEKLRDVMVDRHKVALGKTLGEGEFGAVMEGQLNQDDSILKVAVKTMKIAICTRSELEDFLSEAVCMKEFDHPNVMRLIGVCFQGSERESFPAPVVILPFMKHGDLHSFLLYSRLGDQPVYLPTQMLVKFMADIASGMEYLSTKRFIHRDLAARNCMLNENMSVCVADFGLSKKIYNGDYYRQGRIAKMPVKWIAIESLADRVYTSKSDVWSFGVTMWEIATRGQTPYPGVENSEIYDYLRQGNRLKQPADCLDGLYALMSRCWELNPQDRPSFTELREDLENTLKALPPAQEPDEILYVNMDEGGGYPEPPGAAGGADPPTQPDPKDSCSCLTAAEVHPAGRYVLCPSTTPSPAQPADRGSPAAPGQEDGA
The experiment in a line: FACS Scatchard on human AXL overexpressing NIH3T3 cells; apparent KD (KDapp). On the procedure: Human AXL overexpression NIH3T3 cells were harvested by incubation with 10 mM EDTA in PBS and resuspended at 6 million cells per ml in FACS buffer (PBS pH 7.4, 3% FCS, 0.1% NaN3). In a round-bottom microtiter plate, 100 μl of cell suspension were added to 100 μl of antibody solution containing antibodies 11B7, 11D5, ch11B7-IgG1, ch11B7-IgG2, ch11D5-IgG1 or ch11D5-IgG2 at concentrations between 40 and 0.002 μg/ml (266 and 0.01 nM) in FACS buffer. Antibody binding was allowed to proceed for 2 hours on ice. Then, cells were washed twice with 250 μl FACS buffer per well, and resuspended in 200 μl of secondary antibody (anti-rat-PE; Jackson) diluted 1:50 in FACS buffer. After 45 minutes of incubation, cells were again washed twice in FACS buffer and resuspended in […] PBS for FACS analysis. Analysis was carried out on a Beckman-Coulter FACS FC500. To determine the apparent affinity constant KDapp, mean fluorescence values were plotted against the ratio of mean fluorescence and the corresponding antibody concentration ([M]). The calculated KDapp resulted from the inverse slope of the straight line are listed below: […]

The target of assay [3] is T3, NHis-hAXL26-131 (human AXL single IG domain) (human, UniProt P30530 33-138).
T3 construct: Made in E. coli; tag kept
The experiment in a line: ELISA on plate-adsorbed human AXL IG-domain fragment (1 ug/ml), antibody at 0.04 ug/ml, fluorescent substrate (Example 16). Here is the method:
Then, each solution was dispensed in the amount of […] to an Immuno Plate (manufactured by Nalge Nunc International K.K., #437111) and left standing overnight at 4° C. to adsorb the peptide onto the plate. On the next day, the wells were washed 5 times with a PBS-T solution (PBS and 0.05% (v/v) Tween 20). Then, a solution containing skim milk (manufactured by Morinaga Milk Industry Co., Ltd.) diluted with PBS to 5% was dispensed in an amount of 100 μl/well and left standing at room temperature for 2 hours. The solutions in the wells were removed, and the wells were washed 5 times with a PBS-T solution. The rat anti-human AXL monoclonal antibody #11B7 was diluted to 0.04 μg/ml with a PBS solution containing 0.5% skim milk. Then, the solution was dispensed in amount of 100 μl/well and left standing at room temperature for 2 hours. The wells were washed 5 times with a PBS-T solution. […] Then, a fluorescent substrate solution (manufactured by Roche Diagnostics K.K., #11681982001) was added in the amount of 100 μl/well to perform fluorescence reaction. The fluorescence intensity on the human AXL-IG domain-adsorbed plate was measured 15 minutes after the addition of the fluorescent substrate solution using a SpectraMax M5 (manufactured by Molecular Devices Corp.). […]

Assay [4] addresses T1, Human AXL-Fc (R&D Systems, #154-AL). The experiment in a line: ELISA on plate-adsorbed human AXL-Fc (1 ug/ml), 5-fold antibody dilution series, AP-conjugated goat anti-human IgG, fluorescent substrate (Example 14).

B1: chimeric anti-AXL antibody ch11B7-IgG1 (antibody, V domains shown)
VH: EVQLQESGPGLVKPSQSLSLTCSVTGYSITSNYWGWIRKFPGDKMEWMGYITYSGSTSYNPSLKSRISITRDTSKNQFFLQLNSVTSEDTATYYCAITTFYYWGQGVMVTVSS
VL: DIQMTQAPSSLPASLGDRVTITCRASQDIGNYLRWFQQKPGKSPRLMISGATNLAAGVPSRFSGSRSGSDYSLTISSLESEDMADYYCLQSKESPWTFGGGTKLELKR
notes: Rat/human chimera, human IgG1/kappa; also called chm11B7; chimeric anti-AXL mAb #11B7
B1: in assay [1], the EC50 (read off the curve) (commonly the concentration that produces a half-maximal response) is about 0.02 µg/mL. Also, the Kd in assay [2] was found to be 0.6 nM.

B2: rat anti-human AXL monoclonal antibody #11B7 (antibody, rat IgG1, V domains shown)
VH: EVQLQESGPGLVKPSQSLSLTCSVTGYSITSNYWGWIRKFPGDKMEWMGYITYSGSTSYNPSLKSRISITRDTSKNQFFLQLNSVTSEDTATYYCAITTFYYWGQGVMVTVSS
VL: DIQMTQAPSSLPASLGDRVTITCRASQDIGNYLRWFQQKPGKSPRLMISGATNLAAGVPSRFSGSRSGSDYSLTISSLESEDMADYYCLQSKESPWTFGGGTKLELKR
notes: Rat IgG1/kappa from hybridoma; also called I11B7; rat anti-AXL antibody 11B7
As for B2, the binding result in assay [3] is on record as “no binding (tested: 0.04 ug/ml)”. The Kd in assay [2] was 0.38 nM.

B3: chimeric anti-AXL antibody ch11D5-IgG1 (antibody, V domains shown)
VH: EVQLQESGPGLVKPSQSLSLTCSVTGYSITSNYWGWIRKFPGNKMEWIGHITNSGNTTYNPSLKSRISISRDTSRNQFFLQLNSVTTEDTATYYCAKGAFDYWGQGVMVTVSS
VL: DIQMTQSPSSMSTSLGDRVTITCRASQDIGNYLSWFQQKVGKSPRRMIYGAIKLAVGVPSRFSGSRSGSDYSLTISSLESEDMAIYYCLQYIQFPLTFGSGTKLELKR
notes: Rat/human chimera, human IgG1/kappa; also called chm11D5; human chimeric antibody
B3: the Kd in assay [2] turned out to be 0.4 nM. The “EC50 (read off the curve)” value in assay [4] was about 0.01 µg/mL.

B4: rat anti-human AXL monoclonal antibody #11D5 (antibody, rat IgG2a, V domains shown)
VH: EVQLQESGPGLVKPSQSLSLTCSVTGYSITSNYWGWIRKFPGNKMEWIGHITNSGNTTYNPSLKSRISISRDTSRNQFFLQLNSVTTEDTATYYCAKGAFDYWGQGVMVTVSS
VL: DIQMTQSPSSMSTSLGDRVTITCRASQDIGNYLSWFQQKVGKSPRRMIYGAIKLAVGVPSRFSGSRSGSDYSLTISSLESEDMAIYYCLQYIQFPLTFGSGTKLELKR
notes: Rat IgG2a/kappa from hybridoma; also called III11D5
Consider B4, for which, in assay [2], the Kd was 0.81 nM.
